B1: MAGE-A9 111 (MAGE-A9 peptide antigen 111, KVAELVHFL) (peptide)
peptide: KVAELVHFL
notes: also called p111
B2: SurA2.M (survivin peptide antigen HLA-A2, LMLGEFLKL) (peptide)
peptide: LMLGEFLKL
B3: MAGE-A9 223 (MAGE-A9 peptide antigen 223, ALSVMGVYV) (peptide)
peptide: ALSVMGVYV
notes: also called p223; M9-A2-223
B4: MAGE-A9 270 (MAGE-A9 peptide antigen 270, FLWGSKAHA) (peptide)
peptide: FLWGSKAHA
notes: also called p270; M9-A2-270

Biological target: T1, MHC class 1 allele A*02:01
T1 construct: also called HLA-A2; HLA-A*02:01
Assay: REVEAL on-rate assay, HLA-A*02:01

Which “On-rate T1/2” value does the source give for B1 here?
Its value is 9.52 h.

How did the “On-rate T1/2” value turn out when B2 was run?
Its value is 9.36 h.

With B3 as the binder, how does the “On-rate T1/2” value read?
Its value is 9.17 h.

For B4, which “On-rate T1/2” value is on record?
The value was 9.43 h.

Biological target: T1, MHC class 1 allele A*02:01
Assay: REVEAL R-score, HLA-A*02:01

How did the R-score turn out when B1 was run?
The R-score was 20.9.

How did the R-score turn out when B2 was run?
Its R-score is 22.1.

B3 was tested. Which R-score did it give?
Its R-score is 26.

B4 was tested. Which R-score did it give?
The R-score was 22.1.

Biological target: T1, MHC class 1 allele A*02:01
Assay: REVEAL kinetic score, HLA-A*02:01

B1 was tested. Which Kinetic score did it give?
The Kinetic score was 12.6.

With B2 as the binder, how does the Kinetic score read?
Its Kinetic score is 12.8.

How did the Kinetic score turn out when B3 was run?
Its Kinetic score is 13.1.

With B4 as the binder, how does the Kinetic score read?
The Kinetic score was 12.7.

Biological target: T1, MHC class 1 allele A*02:01
Assay: REVEAL peptide-MHC binding assay, HLA-A*02:01

With B1 as the binder, how does the REVEAL score read?
Its REVEAL score is 166.

For B2, which REVEAL score is on record?
Its REVEAL score is 172.

How did the REVEAL score turn out when B3 was run?
Its REVEAL score is 199.

How did the REVEAL score turn out when B4 was run?
Its REVEAL score is 173.

Biological target: T1, MHC class 1 allele A*02:01
Assay: REVEAL off-rate assay, HLA-A*02:01

How did the “Off-rate T1/2” value turn out when B1 was run?
The value was greater than 120 h.

Which “Off-rate T1/2” value does the source give for B2 here?
The value was greater than 120 h.

How did the “Off-rate T1/2” value turn out when B3 was run?
The value was greater than 120 h.

With B4 as the binder, how does the “Off-rate T1/2” value read?
Its value is greater than 120 h.

— US20240390468A1 (IMMUNOVACCINE TECHNOLOGIES, published 2024)
